Experimental data from publication PMC6445466.

Legend:
[1] = biological target: human C1r, full-length enzyme (human) (UniProt P00736)
[2] = biological target: BAD16-C (residues 204-352, B. afzelii strain PGau) (Borrelia afzelii strain PGau); assay: SPR; Biacore T200, 25°C; borrelial protein immobilised by amine coupling (CMD200M chip); C1 as analyte, two-fold dilution series 0 to 150 nM, 2 min association, 3 min dissociation; HBS-T (20 mM HEPES pH 7.3, 140 mM NaCl, 0.005% Tween-20) with 5 mM CaCl2; 1:1 kinetic fit; triplicate
[3] = biological target: BBK32(206-348) (residues 206-348, B. burgdorferi strain B31) (Borrelia burgdorferi strain B31) (UniProt O50835); assay: as above
[4] = biological target: BBK32-C (residues 206-354, B. burgdorferi strain B31) (Borrelia burgdorferi strain B31) (UniProt O50835); assay: as above
[5] = biological target: BXK32-C (BBK32-C E308K-Q319K-E324Q) (Borrelia burgdorferi strain B31) (UniProt O50835); assay: as above

Sequence of human C1r, full-length enzyme (human) (P00736 18-705): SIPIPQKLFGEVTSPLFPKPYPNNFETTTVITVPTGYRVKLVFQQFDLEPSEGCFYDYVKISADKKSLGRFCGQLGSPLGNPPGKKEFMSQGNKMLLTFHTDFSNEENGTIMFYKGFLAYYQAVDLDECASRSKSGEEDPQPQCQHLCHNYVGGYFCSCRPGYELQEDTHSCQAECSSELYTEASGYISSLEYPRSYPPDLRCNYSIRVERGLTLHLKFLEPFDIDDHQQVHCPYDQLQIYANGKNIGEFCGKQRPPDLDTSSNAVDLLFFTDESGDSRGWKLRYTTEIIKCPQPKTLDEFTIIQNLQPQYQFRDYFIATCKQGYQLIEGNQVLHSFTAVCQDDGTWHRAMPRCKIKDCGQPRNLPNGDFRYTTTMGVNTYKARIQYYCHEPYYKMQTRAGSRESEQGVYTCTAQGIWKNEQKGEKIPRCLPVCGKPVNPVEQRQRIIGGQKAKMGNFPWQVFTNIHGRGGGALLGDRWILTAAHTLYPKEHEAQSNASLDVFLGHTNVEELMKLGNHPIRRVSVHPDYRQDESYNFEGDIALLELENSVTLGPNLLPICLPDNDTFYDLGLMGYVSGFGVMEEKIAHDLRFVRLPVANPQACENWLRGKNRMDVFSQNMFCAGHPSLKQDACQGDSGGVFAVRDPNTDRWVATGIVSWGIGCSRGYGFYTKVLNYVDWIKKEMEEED

| Substance | IC50 of C3b deposition, classical pathway-specific ELISA with normal human serum [1] [nM] | IC50 of MAC deposition, classical pathway-specific ELISA with normal human serum [1] [nM] | IC50 of classical pathway hemolysis of sensitized sheep red blood cells by human serum [1] [nM] | Kd [2] [nM] | Kd [3] [nM] | koff [3] [s⁻¹] | Kd [4] [nM] | koff [4] [s⁻¹] | Kd [5] [nM] | koff [5] [s⁻¹] |
| --- | --- | --- | --- | --- | --- | --- | --- | --- | --- | --- |
| BAD16-C (residues 204-352, B. afzelii strain PGau) (domain or fragment) | 9.6 | 5.9 | 55 | – | – | – | – | – | – | – |
| human C1 complex (from UniProt P02745 23-245; P02746 28-253; P02747 29-245) | – | – | – | 5.4 | 5.6 | 0.00054 | 6 | 0.0005 | 4.7 | 3.8e-05 |
